{"source": "patent US20110014193A1", "about": "(JURIDICAL FDN THE CHEMO SERO THERAPEUTIC RES INST, published 2011)", "binders": {"B1": {"name": "mouse Y9A2 antibody (antibody, V domains shown)", "VH": "QVQLQQSGAELANPGASVKMSCKASGYTLTTYWMHWVKQRPGQGLEWIGYINPSSGYTEYNQKFKDKATLTADKSSSTAYMQLTSLTSEDSAVYYCAIYGDYGDFYFDYWGQGTTLTVSS", "VL": "SIVMTQTPKFLLVSAGDRVTMTCKASQSVNTDVAWFQQKPGQSPKLLIYFASNHYTGVPDRFTGSGYGTDFTFTISTVQAEDLAIYFCRQDYSSPFTFGGGTKLEIKR"}, "B2": {"name": "chimeric Y9A2 antibody (antibody, V domains shown)", "VH": "B1 VH", "VL": "B1 VL"}, "B3": {"name": "RY9A2v501 antibody (antibody, V domains shown)", "VH": "QVQLVQSGAEVKKPGSSVKMSCKASGYTLTTYWMHWVKQRPGQGLEWIGYINPSSGYTEYNQKFKDRVTITADKSTSTAYMELSSLRSEDTAVYYCAIYGDYGDFYFDYWGQGTTVTVSS", "VL": "DIQMTQSPSSLSASVGDRVTITCKASQSVNTDVAWYQQKPGKAPKLLIYFASNHYTGVPSRFSGSGSGTDFTFTISSLQPEDIATYYCRQDYSSPFTFGGGTKVEIKR"}, "B4": {"name": "RY9A2v5(AL)01 antibody (antibody, V domains shown)", "VH": "B3 VH with D104A, F105L", "VL": "B3 VL"}, "B5": {"name": "RY9A2v11(M34L)012 antibody (antibody, human IgG1, kappa, V domains shown)", "VH": "B3 VH with M34L, K65Q, D66G", "VL": "B3 VL with K24R"}, "B6": {"name": "RY9A2v5(WE)01 antibody (antibody, V domains shown)", "VH": "B3 VH with D104W, F105E", "VL": "B3 VL"}, "B7": {"name": "RY9A2v5(SW)01 antibody (antibody, V domains shown)", "VH": "B3 VH with D104S, F105W", "VL": "B3 VL"}, "B8": {"name": "RY9A2v5(AW)01 antibody (antibody, V domains shown)", "VH": "B3 VH with D104A, F105W", "VL": "B3 VL"}, "B9": {"name": "RY9A2v5(M34L)01 antibody (antibody, V domains shown)", "VH": "B3 VH with M34L", "VL": "B3 VL"}, "B10": {"name": "RY9A2v11012 antibody (antibody, V domains shown)", "VH": "B3 VH with K65Q, D66G", "VL": "B3 VL with K24R"}, "B11": {"name": "RY9A2v12(M34L)012 antibody (antibody, human IgG1, kappa, V domains shown)", "VH": "B3 VH with M20V, M34L, K38R, R40A, I48M, K65Q, D66G", "VL": "B3 VL with K24R"}, "B12": {"name": "RY9A2v11011 antibody (antibody, V domains shown)", "VH": "B3 VH with K65Q, D66G", "VL": "B3 VL with K24Q"}, "B13": {"name": "RY9A2v5(M34I)01 antibody (antibody, V domains shown)", "VH": "B3 VH with M34I", "VL": "B3 VL"}, "B14": {"name": "RY9A2v801 antibody (antibody, V domains shown)", "VH": "B3 VH with M20V, K38R, R40A, I48M", "VL": "B3 VL"}, "B15": {"name": "RY9A2v5(IAW)01 antibody (antibody, human IgG1, kappa, V domains shown)", "VH": "B3 VH with M34I, D104A, F105W", "VL": "B3 VL"}}, "assay_in_all_cases": "cell-based or functional assay", "key": {"[1]": {"biological_target": "T1, human α9 integrin molecule (human, UniProt Q13797 30-1035; P05556 21-798)", "T1 sequence (Q13797 30-1035 limits assumed, chain 1 of 2)": "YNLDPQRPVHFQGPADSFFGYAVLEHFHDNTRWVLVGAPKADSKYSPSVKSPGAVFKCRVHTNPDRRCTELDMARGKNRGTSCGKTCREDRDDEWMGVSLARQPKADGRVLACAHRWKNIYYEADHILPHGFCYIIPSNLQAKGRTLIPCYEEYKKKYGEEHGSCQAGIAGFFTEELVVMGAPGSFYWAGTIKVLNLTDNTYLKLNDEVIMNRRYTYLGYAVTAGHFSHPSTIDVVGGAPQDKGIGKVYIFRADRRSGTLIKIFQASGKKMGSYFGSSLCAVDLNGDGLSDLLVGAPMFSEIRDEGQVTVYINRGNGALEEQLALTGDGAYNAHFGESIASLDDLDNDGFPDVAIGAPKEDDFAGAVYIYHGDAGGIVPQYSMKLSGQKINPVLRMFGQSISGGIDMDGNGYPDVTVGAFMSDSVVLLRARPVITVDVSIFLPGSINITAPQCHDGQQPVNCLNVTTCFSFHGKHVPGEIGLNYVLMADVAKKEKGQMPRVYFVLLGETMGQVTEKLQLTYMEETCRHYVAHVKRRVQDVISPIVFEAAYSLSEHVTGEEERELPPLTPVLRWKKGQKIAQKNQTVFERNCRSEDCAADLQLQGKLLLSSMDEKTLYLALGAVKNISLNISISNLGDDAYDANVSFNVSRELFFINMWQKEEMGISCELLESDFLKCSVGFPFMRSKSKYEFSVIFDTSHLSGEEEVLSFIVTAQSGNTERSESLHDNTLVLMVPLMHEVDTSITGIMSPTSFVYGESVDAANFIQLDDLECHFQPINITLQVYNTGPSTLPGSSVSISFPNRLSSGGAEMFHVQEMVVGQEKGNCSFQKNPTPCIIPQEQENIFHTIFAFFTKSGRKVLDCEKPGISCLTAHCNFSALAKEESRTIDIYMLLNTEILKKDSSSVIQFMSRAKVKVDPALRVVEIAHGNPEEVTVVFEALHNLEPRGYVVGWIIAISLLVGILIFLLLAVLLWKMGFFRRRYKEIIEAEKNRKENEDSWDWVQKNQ", "T1 sequence (P05556 21-798 limits assumed, chain 2 of 2)": "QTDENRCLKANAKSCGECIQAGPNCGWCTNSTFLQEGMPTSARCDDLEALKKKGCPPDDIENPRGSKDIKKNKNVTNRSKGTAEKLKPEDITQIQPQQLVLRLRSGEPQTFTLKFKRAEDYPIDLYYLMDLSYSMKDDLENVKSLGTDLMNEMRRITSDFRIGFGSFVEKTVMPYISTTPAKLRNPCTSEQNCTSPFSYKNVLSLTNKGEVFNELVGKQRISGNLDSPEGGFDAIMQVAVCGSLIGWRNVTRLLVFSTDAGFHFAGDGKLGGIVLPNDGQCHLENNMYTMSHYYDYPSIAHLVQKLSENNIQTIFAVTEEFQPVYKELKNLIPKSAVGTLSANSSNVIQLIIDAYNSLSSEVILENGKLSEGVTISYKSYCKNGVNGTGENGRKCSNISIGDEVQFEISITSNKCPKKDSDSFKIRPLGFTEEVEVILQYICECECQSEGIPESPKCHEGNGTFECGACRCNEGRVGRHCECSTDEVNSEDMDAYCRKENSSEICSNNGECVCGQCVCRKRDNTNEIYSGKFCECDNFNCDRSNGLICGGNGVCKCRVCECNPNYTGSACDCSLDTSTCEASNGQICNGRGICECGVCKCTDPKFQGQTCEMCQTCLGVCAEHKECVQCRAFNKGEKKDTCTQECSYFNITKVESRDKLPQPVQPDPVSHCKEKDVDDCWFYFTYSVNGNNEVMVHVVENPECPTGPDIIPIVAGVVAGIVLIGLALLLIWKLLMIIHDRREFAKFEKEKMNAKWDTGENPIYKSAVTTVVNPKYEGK"}, "[2]": {"biological_target": "T1, human α9 integrin molecule", "remark": "listed apart in the source"}, "[3]": {"biological_target": "T1, human α9 integrin molecule", "remark": "listed apart in the source"}, "[4]": {"biological_target": "T1, human α9 integrin molecule", "remark": "listed apart in the source"}, "[5]": {"biological_target": "T1, human α9 integrin molecule", "remark": "listed apart in the source"}, "[6]": {"biological_target": "T1, human α9 integrin molecule", "remark": "listed apart in the source"}, "[7]": {"biological_target": "T1, human α9 integrin molecule", "remark": "listed apart in the source"}, "[8]": {"biological_target": "T1, human α9 integrin molecule", "remark": "listed apart in the source"}, "[9]": {"biological_target": "T1, human α9 integrin molecule", "remark": "listed apart in the source"}}, "note": "Changes are numbered by the printed parent chain. Numbers in names are those of the source. Where two headings read alike, the source gives them in different places.", "data": [{"binder": "B1", "values": [{"measurement": "average cell adhesion inhibitory activity IC50, SW480/hα9 cells on human Tenascin C-RAA", "setting": "[1]", "value": 0.041, "unit": "µg/mL"}, {"measurement": "average cell adhesion inhibitory activity IC50, SW480/hα9 cells on human VCAM-1/Ig", "setting": "[1]", "value": 0.077, "unit": "µg/mL"}, {"measurement": "average of IC50 values, cell adhesion inhibition test, SW480/hα9 cells on nOPN-RAA", "setting": "[1]", "value": 0.039, "unit": "µg/mL"}, {"measurement": "inhibitory rate (%) of migration of SW480/hα9 cell against nOPN-RAA, antibody at 5 µg/mL", "setting": "[2]", "value": 28, "unit": "%"}, {"measurement": "specific activity (IC50 relative to mouse Y9A2 = 1), cell adhesion inhibition test on nOPN-RAA", "setting": "[3]", "value": "1 ratio of IC50 to mouse Y9A2"}, {"measurement": "specific activity (IC50 relative to mouse Y9A2 = 1), cell adhesion inhibition test on human Tenascin C-RAA", "setting": "[4]", "value": "1 ratio of IC50 to mouse Y9A2"}, {"measurement": "specific activity (IC50 relative to mouse Y9A2 = 1), cell adhesion inhibition test on human VCAM-1", "setting": "[4]", "value": "1 ratio of IC50 to mouse Y9A2"}, {"measurement": "IC50 (µg/mL), cell adhesion inhibition test, SW480/hα9 cells on nOPN-RAA", "setting": "[5]", "value": 0.025, "unit": "µg/mL"}, {"measurement": "IC50 (µg/mL), cell adhesion inhibition test, SW480/hα9 cells on nOPN-RAA", "setting": "[6]", "value": 0.07, "unit": "µg/mL"}, {"measurement": "IC50 (µg/mL), cell adhesion inhibition test, SW480/hα9 cells on nOPN-RAA", "setting": "[7]", "value": 0.039, "unit": "µg/mL"}, {"measurement": "IC50 (µg/mL), cell adhesion inhibition test, SW480/hα9 cells on nOPN-RAA; value in parentheses, measured simultaneously with RY9A2v5(AL)01", "setting": "[8]", "value": 0.052, "unit": "µg/mL"}, {"measurement": "IC50 (µg/mL), cell adhesion inhibition test, SW480/hα9 cells on nOPN-RAA; value in parentheses, measured simultaneously with RY9A2v5(AW)01", "setting": "[8]", "value": 0.037, "unit": "µg/mL"}, {"measurement": "IC50 (µg/mL), cell adhesion inhibition test, SW480/hα9 cells on nOPN-RAA; value in parentheses, measured simultaneously with RY9A2v5(SW)01", "setting": "[8]", "value": 0.052, "unit": "µg/mL"}, {"measurement": "IC50 (µg/mL), cell adhesion inhibition test, SW480/hα9 cells on nOPN-RAA; value in parentheses, measured simultaneously with RY9A2v5(WE)01", "setting": "[8]", "value": 0.052, "unit": "µg/mL"}, {"measurement": "IC50 (µg/mL), cell adhesion inhibition test, SW480/hα9 cells on nOPN-RAA", "setting": "[9]", "value": 0.049, "unit": "µg/mL"}]}, {"binder": "B2", "values": [{"measurement": "IC50 (µg/mL), cell adhesion inhibition test, SW480/hα9 cells on nOPN-RAA", "setting": "[7]", "value": 0.038, "unit": "µg/mL"}]}, {"binder": "B3", "values": [{"measurement": "IC50 (µg/mL), cell adhesion inhibition test, SW480/hα9 cells on nOPN-RAA", "setting": "[6]", "value": 0.054, "unit": "µg/mL"}]}, {"binder": "B4", "values": [{"measurement": "IC50 (µg/mL), cell adhesion inhibition test, SW480/hα9 cells on nOPN-RAA", "setting": "[8]", "value": 0.032, "unit": "µg/mL"}]}, {"binder": "B5", "values": [{"measurement": "inhibitory rate (%) of migration of SW480/hα9 cell against nOPN-RAA, antibody at 5 µg/mL", "setting": "[2]", "value": 84, "unit": "%"}, {"measurement": "specific activity (IC50 relative to mouse Y9A2 = 1), cell adhesion inhibition test on nOPN-RAA", "setting": "[3]", "value": "0.23 ratio of IC50 to mouse Y9A2"}, {"measurement": "specific activity (IC50 relative to mouse Y9A2 = 1), cell adhesion inhibition test on human Tenascin C-RAA", "setting": "[4]", "value": "0.35 ratio of IC50 to mouse Y9A2"}, {"measurement": "specific activity (IC50 relative to mouse Y9A2 = 1), cell adhesion inhibition test on human VCAM-1", "setting": "[4]", "value": "0.44 ratio of IC50 to mouse Y9A2"}]}, {"binder": "B6", "values": [{"measurement": "IC50 (µg/mL), cell adhesion inhibition test, SW480/hα9 cells on nOPN-RAA", "setting": "[8]", "value": 0.022, "unit": "µg/mL"}]}, {"binder": "B7", "values": [{"measurement": "IC50 (µg/mL), cell adhesion inhibition test, SW480/hα9 cells on nOPN-RAA", "setting": "[8]", "value": 0.035, "unit": "µg/mL"}]}, {"binder": "B8", "values": [{"measurement": "IC50 (µg/mL), cell adhesion inhibition test, SW480/hα9 cells on nOPN-RAA", "setting": "[8]", "value": 0.015, "unit": "µg/mL"}]}, {"binder": "B9", "values": [{"measurement": "IC50 (µg/mL), cell adhesion inhibition test, SW480/hα9 cells on nOPN-RAA", "setting": "[9]", "value": 0.021, "unit": "µg/mL"}]}, {"binder": "B10", "values": [{"measurement": "IC50 (µg/mL), cell adhesion inhibition test, SW480/hα9 cells on nOPN-RAA", "setting": "[5]", "value": 0.008, "unit": "µg/mL"}]}, {"binder": "B11", "values": [{"measurement": "inhibitory rate (%) of migration of SW480/hα9 cell against nOPN-RAA, antibody at 5 µg/mL", "setting": "[2]", "value": 86, "unit": "%"}, {"measurement": "specific activity (IC50 relative to mouse Y9A2 = 1), cell adhesion inhibition test on nOPN-RAA", "setting": "[3]", "value": "0.23 ratio of IC50 to mouse Y9A2"}, {"measurement": "specific activity (IC50 relative to mouse Y9A2 = 1), cell adhesion inhibition test on human Tenascin C-RAA", "setting": "[4]", "value": "0.26 ratio of IC50 to mouse Y9A2"}, {"measurement": "specific activity (IC50 relative to mouse Y9A2 = 1), cell adhesion inhibition test on human VCAM-1", "setting": "[4]", "value": "0.95 ratio of IC50 to mouse Y9A2"}]}, {"binder": "B12", "values": [{"measurement": "IC50 (µg/mL), cell adhesion inhibition test, SW480/hα9 cells on nOPN-RAA", "setting": "[5]", "value": 0.012, "unit": "µg/mL"}]}, {"binder": "B13", "values": [{"measurement": "IC50 (µg/mL), cell adhesion inhibition test, SW480/hα9 cells on nOPN-RAA", "setting": "[9]", "value": 0.024, "unit": "µg/mL"}]}, {"binder": "B14", "values": [{"measurement": "IC50 (µg/mL), cell adhesion inhibition test, SW480/hα9 cells on nOPN-RAA", "setting": "[6]", "value": 0.058, "unit": "µg/mL"}]}, {"binder": "B15", "values": [{"measurement": "inhibitory rate (%) of migration of SW480/hα9 cell against nOPN-RAA, antibody at 5 µg/mL", "setting": "[2]", "value": 109, "unit": "%"}, {"measurement": "specific activity (IC50 relative to mouse Y9A2 = 1), cell adhesion inhibition test on nOPN-RAA", "setting": "[3]", "value": "0.29 ratio of IC50 to mouse Y9A2"}, {"measurement": "specific activity (IC50 relative to mouse Y9A2 = 1), cell adhesion inhibition test on human Tenascin C-RAA", "setting": "[4]", "value": "0.44 ratio of IC50 to mouse Y9A2"}, {"measurement": "specific activity (IC50 relative to mouse Y9A2 = 1), cell adhesion inhibition test on human VCAM-1", "setting": "[4]", "value": "1 ratio of IC50 to mouse Y9A2"}]}]}
